Laboratory results as given in publication doi:10.1101/2022.08.03.502613.

Molecular target: γ-tubulin ring complex (γ-TuRC) purified using GCP3-GFP-SII (human (endogenous in HEK293T)) (UniProt Q96CW5)
Assay: single-molecule colocalisation by TIRF microscopy

% of CDK5RAP2-positive dots colocalizing with γ-TuRCs, with tubulin: 13%
% of CDK5RAP2-positive dots colocalizing with γ-TuRCs, without tubulin: 41%
Substance: mCherry-CDK5RAP2 (full-length, human) (from UniProt Q96SN8 1-1893) (natural protein)
